The series is described as follows: soluble on expression in E. coli; label from the status in PepcDB or PDB records.
As for “MAHHHHHHMSFKEMRLAFEGSKNIYESSLLTFKGVDGYDVYNCSLLFQYKGKHHLFGRFERREKSSDSRVRLFVETGKDEYTVVPDQLTYQLEDPFVSKVQGSLFFGGTQVIKSGGNVTGYFCDFYHGMPQLLTYYTTGPDLMRSIRIVQLADGTIGIFSCHKTEGSCLIGFTTVNSLNEVTREVIAEAKPINNAPFLGAWGGVNQAYLLSSGNIGCICHHGYLDKDANGEQRNVCCITSFVYDPKRNNTHTFQLIGTRGCFPDCPSKSPSVADCAFASGIVMREDGKCDLYSGLGDTHEGRITIDYPFKGYGTVVNDLVF”, the “soluble on expression in E. coli” value was “soluble”. Turning to “MSLTSLYTGTFVDTPTPAGLRVRRNHLLAVSAQGAIAHIAPVSDPASQALLASAPPPTALGRHSFFLPTYADLHLHAAQYLYAGTGLDLPLLEWLERYAYRAEERVDADEQLAERLYGRLVQRLRENGTGCVVFFGTIGVQANLILARKAQEAGIRAFIGKLSMDESPRPSYGEASPAASLSSLNSFLDSMESYLSQFPSHRRLVQPIITPRFVPVCSDELLQGLAKVAQDRNVRLQSHMCEGRDQIDMSLKTKGLDDEKVFDKFGLLGPQTLQAHVTYLDDKLIPLIKERGVTIAHCPLSNQYLSERQFPLREALDASLSLGLGTDIAGGYSPSIHTAMRQAVIISRMREGDRCESLGCSFGTVKKEEEGGGRNLRVDWKEAVWAATRGGKAGMGLGGALEVGMEFDVQLIELASEENPTGTGPLDLFDLADSQVDTDTDEWWFDALERWWSNGDERNRKGMWVQGAKIAEGHHHHHH”, the “soluble on expression in E. coli” value is reported as “soluble”.

Consider “MIDNLIKKEFLAHKEALEKSLEGLQEALKQSVHLLIETLENQGKILICGNGGSASDAQHFAAELTGRYKLERKGLSAISLNTDISALTAIANDYGYEEVFARQVEALGVKNDVLIGISTSGNSKNVLKAYEKAKDLEMKTLSLAGRDGGKMKPLSDMALIVPSDDTPRIQEMHILMIHILCDCIERHFAHKN”, for which the “soluble on expression in E. coli” value is “not soluble”.

Turning to “MQKALETKRLTLSYGETIIIDELNLEIPKGEITIFIGSNGCGKSTLLRSLARLLKPTTGDILLDNQAIQSMQTKQIARQMAILPQGPQAPEGLTVLQLVKQGRYPYQTWLKQWSEKDEEMVQNALAATGMTEFAERDVHALSGGQRQRAWIAMTLAQDTDIILLDEPTTYLDMTHQIEVLDLLFELNETEQRTIVMVLHDLNLACRYADNIVAIQDKQIYAQGKPEEVVDEKLVRDVFRMECQISTDPLFGTPLCIPHGKGRRVRKEVAHAMR”, the “soluble on expression in E. coli” value is reported as “not soluble”.

For “MDYQQLANQIKQWAIELGFEKVGICDVDLSEHEPALQAWLDAGYHGEMDWMARHGMMRARPAELLPGTLRVISARINYLPPQAQFASNLSDPNQAYISRYALGRDYHKLVRNQLKKLGEKIEQEVGKLGYRPFVDSAPILERPLAQKAGLGWTGKHSLILDKENGSWFFLGELLVDIPLPVDEPSENQCGKCTACITSCPTNAIVAEGVVDARRCVSYLTIEYSGVIPLEFRRAMGNRIYGCDDCQLVCPWNRFAPLTQQSDFHRRQSLNNADLVVLFEWDEATFLKNMEGSAIRRIGHQQWRRNLIIAMGNAPYSPRIIDTLQRHLGQSELLDEHIHWALEEQTQKTATPRQHARLIRIIEKGLPRDA”, the “soluble on expression in E. coli” value is reported as “not soluble”. As for “MSELRILRAVDYPRMPWKNGAGSTEEIARDGGDGLDGFGWRLSIADVGESGGFSGFAGYQRIISVLEGGGMRLRVDGAESAPLRARQAFAFSGDSEVHCTLLDGAIRDFNLIYAPRRHRARLQWLRVEGELDWHGTASTLLLFAQQDGVAISLQGQPRGQLAAHDCLCAEGLQGLQHWRLTAHEPAWVCAVELDSL”, the entry is “soluble”. The value for “MVQISDLPRDLTEEVLSRIPVTSMRAVRFTCKKWNTLSKDRSFTKKHLRGARAAAKKKQTKEFQVIMMIQFRVYLYSVNLLNPSIERIGKLISLDVEDHVDISKIFHCGGLLLCITKDISRLVVWNPYSGQTRWIKPRNSYHRLDRYALGYEEKNKSCRCYKILRFMDDYEDDRALRLIREFEIYDLNSDSWKVVNVTPDWDVEFYHRGLSLKGNTYWFAQEKLPPLPRGRVITISDMADFLLCFDFTRERFGPRLPLPFHSFVEDTVTLSSVRDKKLAVLFQPCSASTVKIWISRKIEPNAVSWRKVFLAVDMKSLTGFQFDINAASFFVDEKKKVAMVLDKDRFSYKFTRNIAYIIGKKGYFEKVDLGESTVSSCASLVCSYVPSSVQI” was “soluble”; that for “TPAAPISTVADGDWPAYGRNQEGQRFSPLKQINADNVKNLKEAWVFRTGDLKQPNDPGEITNEVTPIKVGDTLFLCTAHQRLFALDAATGKEKWHFDPQLNADPSFQHVTCRGVSYHEAKADNAPADVVADCPRRIILPVNDGRLFAVNADNGKLCETFANKGILNLQTNMPVTTPGMYEPTSPPIITDKTIVIAGAVTDNFSTREPSGVIRGFDVNTGKLLWAFDPGAKDPNAIPSDEHHFTLNSPNSWAPAAYDAKLDLVYLPMGVTTPDIWGGNRTPEQERYASSIVALNATTGKLAWSYQTVHHDLWDMDMPSQPTLADIEVNGKTVPVIYAPAKTGNIFVLDRRNGELVVPAPEKPVPQGAAKGDYVTKTQPFSDLSFRPKKDLTGADMWGATMFDQLVCRVIFHQLRYEGIFTPPSEQGTLVFPGNLGMFEWGGISVDPNRQVAIANPMALPFVSKLIPRGPGNPMEPPKDAKGSGTESGVQPQYGVPYGVTLNPFLSPFGLPCKQPAWGYISALDLKTNEVVWKKRIGTPQDSLPFPMPVKLPFTMGMPMLGGPISTAGNVLFIGATADNYLRAYNMSNGEKLWEARLPAGGQATPMTYEVNGKQYVVISAGGHGSFGTKMGDYIVAYALPDDAK” was “not soluble”. As for “MVRVKICGITNLEDALFSVESGADAVGFVFYPKSKRYISPEDARRISVELPPFVFRVGVFVNEEPEKILDVASYVQLNAVQLHGEEPIELCRKIAERILVIKAVGVSNERDMERALNYREFPILLDTKTPEYGGSGKTFDWSLILPYRDRFRYLVLSGGLNPENVRSAIDVVRPFAVDVSSGVEAFPGKKDHDSIKMFIKNAKGL”, the entry is “soluble”; as for “MGSDKIHHHHHHMANFKVGCGKAMIQFSASELPIREFKSKLDDLYCRVMLISGKNSWALISFDLTSLRAAAIKRYQELAARLLAIDSNQIWVTVTHTFAAPHLPSTTDSMARKSAYRLIDEKLKESLMLACRQAHEDLQAVQVGQVNINCPLNVNRNVLTKQGWWLGRNLEGYSNHQLRVLAFRKADKTTNLLVNYDIQQSVLDHVTDDHGEQMISSDLMGNGIKAYEGNDRVAIFIPGCAGDQRPLFTGKANQPFAVNKALLANQATIVTEKLEWAVQNVHDWQPLRQLRSSQLPVIVPTQVQQRSTFEIKPTKTYDFQSTKQTTTLHLWALRLNQYEIVGTEPELNSSFGDSCRQALAGNTNTMIATLVNGAAKYLPEQIDFERITYQSMNTQLGLTADQCMLEACVQLRQKISEEEY”, “not soluble”.

Regarding “MSLKNITIGMVGVGRIGRMHVANMLAVAETLKERDLNIEIVLADAMPGFAEQVGADMGVKAAASVDKLIEDGVDALFIATSTAGHVDVLRKGIAAKLPMFCEKPIASDVPESLNIIREIDAAGATVQVGHQRRFDLGYQEAKRRLDAGDLGWLHSLKAVSSDAFPPPVSYCATSGGLFRDVSLHDFDIIRWLTGQDIVEVYAKGSNNGDPEIGAVGDIDTGAALLTLADGTLATAIATRYNGAGHDVRLDVMGSKDSTIVGLDEKSAFASAEEGIDFPTGESHPTFAERFADAYKNECIAFVELILGERENPCTPADAVAAAIVADAAQLSLVTGEPVKIPTVREILEGSAQPVEVRALVPSEGHHHHHH”, the “soluble on expression in E. coli” value is listed as “soluble”.

As to “AHHHHHHGSKAIILAAGKGERLRPLTDDRPKVVLKIANKPIISYVLENLDPFVDEFIIVVKYMKEKVIDLLGDEFRGKPITYVEQGEEEGTAAAVYSVKEFIESNEEFFVVNGDLYFEPDAVKGLLHVFKKEKGDAGIVVKEFENLSQYGMVEVENGKVKGIIEKPGNVKGYANLGIYIFKSDVFDYIENTEISERGEYEITDTINLMIKDGKSVVYYNYEGFWSDIGRPWDLLEVNEYILKTKLKHEIRGVVEEGATIIPPVEIGEGTIVRAGSYIIGPVKIGKNCRIGPNCYIRPYTSIGDNCHIGNAVEVKNSIIMDNSNAPHLNYVGDSIIGENTNLGAGTITANLRHDKGTIKVEVKGKLEDSGRRKLGAIIGHNVKVGINVTIYPGRKIGSNSFIGPGVIVDKNIPQNVLVTVKQEKKVIEK”, the “soluble on expression in E. coli” value is listed as “soluble”.

As for “MKNPGTHILPKNPECSKQKTLTKQLLLLELFEFQLDAQIQQNTFQLELTIQRRKEHLEIDSVMKIKNRNFANFGMFNSLHIIRFWNLFYNRISAADFPENSGFRMFATEILVKLENIGNVM”, the “soluble on expression in E. coli” value is given as “not soluble”.

On to “MSLNTFWKSFPDVERSLTETCELIEQTLHTRNEDIEEALVTLARSGGKLLRPAFFFLFAQLGDEEKQEKQQLLKIAASLEILHMATLIHDDIIDDSPLRRGAVTIQSQYGKDVAVYTGDLLFTEFFTLIADAMNGSEFMKINAQGMKRLLLGELDQMSHRFDRRMSIPAYLRSVNGKTAELFSLSCLEGAYFGHSSKEVQRLAKRIGRHIGIAFQVYDDILDYTADTETLKKPALEDLSQGVYTLPLLFAYQAAPDVFSPYLDKGRAITLEEAAEVAALVNDYHGVTEAQAFAKKVTNKAITDIQQLPDGTAKETLLSLTELLLHRSFEGHHHHHH”, for which the “soluble on expression in E. coli” value is on record as “soluble”. As for “MSTPHINVIGAGLAGSEAAWQIAERGIAVHLYEMRPVKQTPAHHTDKFAELVCSNSLRGNSLTNAVGVLKEEMRRLNSVIIRSADRCSVPAGGALAVDRHEFAQAVTEAVREHPNVTVFTEEIQKIPDGPTVIATGPLTSKALSEQLKQLTGEEYLYFYDAAAPIIETDSINMDKVYLKSRYDKGEAAYLNCPMTEEEFDRFYEALISAETVPLKEFEKEVFFEGCMPVEVMAKRGKKTLLFGPMKPVGLEDPKTGKRPYAVVQLRRDNQSGTLYNIVGFQTHLKWGPQKEVIQLIPGLENAEIVRYGVMHRNTFINSPNLLKPTYQYKKRKDLFFAGQITGVEGYVESAAAGLVAGLNAARLVQSKELVVFPDTTMLGSMANYITTANSKNFQPMNANFGLLPPLDTRIKDKKTRYETLAGRALESIQNFVKKMLEHHHHHH”, the “soluble on expression in E. coli” value is reported as “soluble”. For “SHMAPEDPNEEAVSQIFPDSVMLAVQEGIDLLTFPPAPGSPE”, the “soluble on expression in E. coli” value is “soluble”. On to “MYKQILVPVDLNDQGFSDRAVELAVWQAKQANAEIHLLTVLPGIHMSMVATYFPKDAAAKMKQDVKQQLKAFASEHIDDEVIYKVHVAEGKAYATILDYAERLGADLIIMPSHKRSKINKVMLGSVASKVVEYSPINVMVVKPQG”, for which the “soluble on expression in E. coli” value was “not soluble”. As for “MIQPRIRQNPFETYEEVAEGFEDLLAPLELFFDREYQGHLDLGTHGTVYSKGTRDAEAFLRPLWGLGPYVTQNESEYLNDFLTGIIEGTDPESSSYWGKTKDYDQLIVEMAALSTFLLLNKEKTWDQLTKEQQNNLHSWLIQANENIIPPNNWHFFRVLLNLAMKHCEMPYSKEQIAVDLAVIDRFYVGNGWYYDGVETQVDYYVSFAIHYYSLLYCRFAPEDTARVAIMKERATLFAQEFKYWFTQPGEAIPFGRSLTYRFAQVSFFSALVFADVEALPWGEIKGLISRHLHQWMNKDIFTTDGLLSVGYDYQNMVFAEGYNGPGSPYWAFKTFILLAVPKDHPYWQAETQPISFPEKHLPSPESRNYYQVNDAGTHGLMFPAGQFINYQAHAHDKYSKFVYSSHFGFSTIKSDYWYYEGAYDNCLALAEDDHYFRTKGLDDQYEILDDRIIHQWHPWSDVAIKTTIVPLEGQHLRIHEIETQRALVAYEGGFSIPLFDEKVTCVSDQMAEVKNAKGVSKVENINGFSEAAIIRTEPNTNLLYPLTELPYLKANLSKGKHLLISLVTGVLPNEQIEPVKVRLKENQLLVEEKVVILGN”, the entry is “soluble”.
